We go through 95 variants from the supplement of paper PMC10567573.

The chains are these.
B1: BCL2L13 (parent)
chain: MASSSTVPLGFHYETKYVVLSYLG
B2: BEX1 (parent)
chain: HSLRAVSTDPPHHDHHDEFCLMP
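Further: lentivirally expressed fusions sorted by FACS into six bins by GFP to DsRed ratio, PSI derived from sequencing read proportions per bin multiplied by bin number.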

One series covers variants of B1. Put plainly: protein stability index of a GFP-peptide fusion (GPS, HEK-293T) (PSI 1-6); higher = more stable. As to conditions: c terminus: a fixed tail appended.
MASSATVPLGFHYETKYVVLSYLG: the protein stability index amounted to 1.72.

Regarding MASSSTVRLGFHYETKYVVLSYLG, the protein stability index is 3.92.

For MASSSTVFLGFHYETKYVVLSYLG, the protein stability index was 2.74.

For the variant MASSSTVELGFHYETKYVVLSYLG, the protein stability index worked out at 2.25.

Turning to MASSSTVPLGFHYETKYVVLSYLT, the protein stability index was 2.13.

Take MASSSTVPLGFHYETKYVVLSYLS: the protein stability index worked out at 1.97.

For MAISSTVPLGFHYETKYVVLSYLG, the protein stability index was 3.39.

As to MAASSTVPLGFHYETKYVVLSYLG, the protein stability index was 2.39.

Turning to MAPSSTVPLGFHYETKYVVLSYLG, the protein stability index came to 2.9.

In the case of MADSSTVPLGFHYETKYVVLSYLG, the protein stability index amounted to 2.57.

On to MASSSTVPLGFHMETKYVVLSYLG, for which the protein stability index was determined as 2.14.

On to MASSSTVPLGFHYETKQVVLSYLG, for which the protein stability index came to 1.84.

Turning to MASSSTVPLGFHYETKPVVLSYLG, the protein stability index worked out at 1.95.

As to MASSSTVPLGFHYETKSVVLSYLG, the protein stability index was 1.66.

Consider MASSSTVPPGFHYETKYVVLSYLG, for which the protein stability index worked out at 2.1.

For the variant MASSSTVPYGFHYETKYVVLSYLG, the protein stability index worked out at 2.57.

With MASSSTVPCGFHYETKYVVLSYLG, the protein stability index was found to be 3.98.

Regarding MASSSTVPSGFHYETKYVVLSYLG, the protein stability index stood at 3.42.

For MASSSTVPRGFHYETKYVVLSYLG, the protein stability index is 1.79.

On to MASSSTFPLGFHYETKYVVLSYLG, for which the protein stability index was 2.17.

Take MASSSTSPLGFHYETKYVVLSYLG: the protein stability index worked out at 3.11.

MASSSTGPLGFHYETKYVVLSYLG: the protein stability index was determined as 2.08.

With MASSSTMPLGFHYETKYVVLSYLG, the protein stability index stood at 2.35.

Consider MASSSTLPLGFHYETKYVVLSYLG, for which the protein stability index came to 3.03.

For the variant MNSSSTVPLGFHYETKYVVLSYLG, the protein stability index is 3.27.

For the variant MASSSTVPLGKHYETKYVVLSYLG, the protein stability index is 2.63.

In the case of MASSSTVPLGFHYETKYEVLSYLG, the protein stability index stood at 2.02.

MASSSTVPLGFHYETKYVVLSLLG: the protein stability index is 3.28.

Turning to MASSSTVPLGFHYETKYVVLSRLG, the protein stability index came out at 1.69.

For MASSSTVPLGFHYETKYVVLSQLG, the protein stability index is 3.03.

For MASSSTVPLGFHYETKYVVLSVLG, the protein stability index came out at 1.89.

On to MASHSTVPLGFHYETKYVVLSYLG, for which the protein stability index turned out to be 2.24.

MASTSTVPLGFHYETKYVVLSYLG: the protein stability index turned out to be 2.81.

Turning to MASSSTVPLGFHYETKYVVNSYLG, the protein stability index turned out to be 1.65.

Consider MASSSTVPLGFHYETKYVVRSYLG, for which the protein stability index worked out at 1.48.

With MASSSWVPLGFHYETKYVVLSYLG, the protein stability index turned out to be 2.27.

As to MASSSNVPLGFHYETKYVVLSYLG, the protein stability index was 2.58.

As for MASSSVVPLGFHYETKYVVLSYLG, the protein stability index turned out to be 1.82.

Turning to MASSSTVPLGFHYETKYVVLYYLG, the protein stability index turned out to be 2.51.

Consider MASSSTVPLGFHYETKYVVLCYLG, for which the protein stability index was 3.12.

Consider MASSSTVPLGFHYETKYVVLIYLG, for which the protein stability index was determined as 2.36.

In the case of QASSSTVPLGFHYETKYVVLSYLG, the protein stability index turned out to be 1.76.

For WASSSTVPLGFHYETKYVVLSYLG, the protein stability index was determined as 2.52.

Regarding EASSSTVPLGFHYETKYVVLSYLG, the protein stability index is 2.12.

Turning to CASSSTVPLGFHYETKYVVLSYLG, the protein stability index was determined as 2.59.

In the case of MASSSTVPLGFHYETIYVVLSYLG, the protein stability index worked out at 2.74.

Take MASSSTVPLGFHYETSYVVLSYLG: the protein stability index stood at 2.81.

As for MASSSTVPLGFHYETDYVVLSYLG, the protein stability index turned out to be 3.26.

With MASSSTVPLGFHYETKYVVLSYQG, the protein stability index turned out to be 1.48.

On to MASSSTVPLGFHYETKYVILSYLG, for which the protein stability index came out at 3.19.

As for MASSSTVPLGFHYETKYVALSYLG, the protein stability index worked out at 1.99.

Take MASSSTVPLGFHYETKYVQLSYLG: the protein stability index turned out to be 1.71.

Turning to MASSSTVPLGFHYETKYVNLSYLG, the protein stability index turned out to be 1.94.

As to MASSSTVPLGFRYETKYVVLSYLG, the protein stability index is 1.91.

Turning to MASSSTVPLGFCYETKYVVLSYLG, the protein stability index stood at 3.05.

Turning to MASSSTVPLGFVYETKYVVLSYLG, the protein stability index was 2.67.

For MASSSTVPLGFLYETKYVVLSYLG, the protein stability index came to 1.49.

With MASSSTVPLGFTYETKYVVLSYLG, the protein stability index was 1.81.

As to MASSSTVPLDFHYETKYVVLSYLG, the protein stability index stood at 2.02.

As to MASSSTVPLHFHYETKYVVLSYLG, the protein stability index amounted to 3.03.

In the case of MASSSTVPLQFHYETKYVVLSYLG, the protein stability index was 1.69.

Consider MASSSTVPLGFHYEKKYVVLSYLG, for which the protein stability index amounted to 1.4.

Take MASSSTVPLGFHYESKYVVLSYLG: the protein stability index was found to be 1.11.

As for MASSSTVPLGFHYEQKYVVLSYLG, the protein stability index worked out at 2.84.

For MASSSTVPLGFHYEVKYVVLSYLG, the protein stability index came to 3.06.

On to MASSSTVPLGFHYEIKYVVLSYLG, for which the protein stability index came to 3.13.

Turning to MASSSTVPLGFHYITKYVVLSYLG, the protein stability index worked out at 2.82.

Consider MASSSTVPLGFHYPTKYVVLSYLG, for which the protein stability index is 2.24.

For MASSSTVPLGFHYKTKYVVLSYLG, the protein stability index was determined as 2.72.

Variants of B2 are the subject of another series. The series is described as above. To be noted: c terminus: native.
For HSLRAVSTDPPHHDHHDEFYLMP, the protein stability index was found to be 2.92.

In the case of HSLRAVSTDPPHHDHHDEFPLMP, the protein stability index came out at 1.97.

As to HSLRAVSTDPPHHDHHDEDCLMP, the protein stability index was found to be 2.37.

Consider HSLRAVSTDPPHHDHHDEHCLMP, for which the protein stability index came to 2.8.

For HSLRAVSTDPPHHDHHDEFCDMP, the protein stability index came out at 2.46.

As to HSLRAVSTDPPHHDHHDEFCPMP, the protein stability index came to 2.75.

As for HSLRAVSTDPPHHDHHDEFCGMP, the protein stability index amounted to 2.9.

With HSLRAVSTDPPHHDHHPEFCLMP, the protein stability index amounted to 2.96.

HSLRAVSTDPPHHDHHDPFCLMP: the protein stability index is 2.79.

As to HSLRAVSTDPPHHDHHDDFCLMP, the protein stability index is 2.6.

HSLRAVSTDPPHHDHHDEFCLCP: the protein stability index is 2.48.

For HSLRAVSTDPPHHDHHDEFCLPP, the protein stability index worked out at 2.68.

Take HSLRAVSTDPPHHDHHDEFCLSP: the protein stability index was determined as 2.59.

Regarding HSLRAVSTDPPHHDHHDEFCLLP, the protein stability index came out at 1.91.

On to HSLRAVSTDPPHHDHHDEFCLFP, for which the protein stability index came to 1.19.

Turning to HSLRAVSTDPPHHDHHDEFCLTP, the protein stability index worked out at 3.4.

As to HSLRAVSTDPPHHDHHDEFCLYP, the protein stability index was 2.35.

Take HSLRAVSTDPPHHDHHDEFCLGP: the protein stability index amounted to 1.79.

Consider HSLRAVSTDPPHHDHHDEFCLDP, for which the protein stability index came out at 2.11.

As for HSLRAVSTDPPHHDHHDEFCLHP, the protein stability index came to 2.01.

On to HSLRAVSTDPPHHDHHDEFCLAP, for which the protein stability index worked out at 2.11.

As to HSLRAVSTDPPHHDHHDEFCLIP, the protein stability index was found to be 2.04.

In the case of HSLRAVSTDPPHHDHHDEFCLNP, the protein stability index came to 2.52.

Regarding HSLRAVSTDPPHHDHHDEFCLMK, the protein stability index was found to be 2.9.

On to HSLRAVSTDPPHHDHHDEFCLMY, for which the protein stability index came to 2.07.

For the variant HSLRAVSTDPPHHDHHDEFCLMQ, the protein stability index was 2.84.
